Data reported in patent US20140057807A1 (UNIVERSITY OF CHICAGO, published 2014).

Target: T1, human serum albumin (human, UniProt P02768 25-609)
T1 construct: also called HSA
Assay: cradle library selection hit

T1 sequence (P02768 25-609 limits assumed): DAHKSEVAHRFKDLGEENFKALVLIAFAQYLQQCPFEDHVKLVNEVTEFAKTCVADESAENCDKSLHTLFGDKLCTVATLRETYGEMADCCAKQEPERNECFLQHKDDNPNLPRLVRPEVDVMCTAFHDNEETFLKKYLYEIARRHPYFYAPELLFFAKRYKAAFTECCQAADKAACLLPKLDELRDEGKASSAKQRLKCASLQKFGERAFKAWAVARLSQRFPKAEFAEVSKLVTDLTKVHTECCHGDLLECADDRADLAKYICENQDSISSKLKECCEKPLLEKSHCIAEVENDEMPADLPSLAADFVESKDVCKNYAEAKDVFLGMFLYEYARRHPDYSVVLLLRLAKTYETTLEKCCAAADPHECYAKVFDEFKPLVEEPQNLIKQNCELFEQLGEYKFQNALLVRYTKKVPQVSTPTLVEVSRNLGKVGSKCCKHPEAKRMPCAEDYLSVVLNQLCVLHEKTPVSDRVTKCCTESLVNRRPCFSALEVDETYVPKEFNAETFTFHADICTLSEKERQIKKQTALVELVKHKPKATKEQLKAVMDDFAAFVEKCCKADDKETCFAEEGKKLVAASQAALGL

B1: SEQ ID NO 234 (designed binder)
chain: VSDVPRDLEVVAATPTSLLISWDAPAVTVRSYRIMYSGYYAWEYSRQEFTVPGSKSTATISGLKPGVIYAIHVSAVVTNWEGPISINYRT
  binding result: binds

B2: SEQ ID NO 243 (designed binder)
chain: NVSPPRRARVTDATETTITISWRTKTETITLFEVYADPQVSNGTYIQRTIKPDVRSYTITGLQPGTYYRIGLYTLSDYEKSTPVVIDAST
  binding result: binds

B3: SEQ ID NO 209 (designed binder)
chain: VSDVPRDLEVVAATPTSLLISWDAPAVTVRNYYIQYMVNYNDTQEFTVPGSKSTATISGLKPGVYYDIKVAAVYVAEDRPISINYRT
  binding result: binds

B4: SEQ ID NO 238 (designed binder)
chain: VSDVPRDLEVVAATPTSLLISWDAPAVTVRIYYIAYGYYPGWGRAGSQEFTVPGSKSTATISGLKPGVTYGISVSAVEERRKVPISINYRT
  binding result: binds

B5: SEQ ID NO 212 (designed binder)
chain: VSDVPRDLEVVAATPTSLLISWDAPAVTVRTYSISYSFGLDYEYDQEFTVPGSKSTATISGLKPGVQYYIVVDAVAGWQYYPISINYRT
  binding result: binds

B6: SEQ ID NO 244 (designed binder)
chain: NVSPPRRARVTDATETTITISWRTKTETITRFFVSAVPFETGTIQRTIKPDVRSYTITGLQPGTAYDIALYTLFGYYYYPVVIDAST
  binding result: binds

B7: SEQ ID NO 242 (designed binder)
chain: NVSPPRRARVTDATETTITISWRTKTETITYFTVDAAPSLVVDNIQRTIKPDVRSYTITGLQPGTYYIILLYTLYNYDALPVVIDAST
  binding result: binds

B8: SEQ ID NO 230 (designed binder)
chain: VSDVPRDLEVVAATPTSLLISWDAPAVTVRNYYIGYRYTVANWCYQEFTVPGSKSTATISGLKPGVSYWITAKAVVFEGDHPISINYRT
  binding result: binds

B9: SEQ ID NO 231 (designed binder)
chain: VSDVPRDLEVVAATPTSLLISWDAPAVTVRKYYIGYKLQVMEPDQEFTVPGSKSTATISGLKPGVEYWIGVDAVSYYWGFDPISINYRT
  binding result: binds

B10: SEQ ID NO 203 (designed binder)
chain: VSDVPRDLEVVAATPTSLLISWDAPAVTVRAYQIRYAYYSVGRQEFTVPGSKSTATISGLRPGVKYHISVYAVNGGMVTDPISINYRT
  binding result: binds

B11: SEQ ID NO 236 (designed binder)
chain: VSDVPRDLEVVAATPTSLLISWDAPAVTVRYYYGIYYAGKAGGDYFITQEFTVPGSKSTATISGLKPGVEYRIYVAAVGYHYTPPISINYRT
  binding result: binds

B12: SEQ ID NO 219 (designed binder)
chain: VSDVPRDLEVVAATPTSLLISWDAPAVTVRRYYIGYNWQSPAWNQEFTVPGSKSTATISGLKPGVYYQIYVAAVLRYGDYAPISINYRT
  binding result: binds

B13: SEQ ID NO 227 (designed binder)
chain: VSDVPRDLEVVAATPTSLLISWDAPAVTVRTYQIEYVSSYYRWTQEFTVPGSKSTATISGLKPGVVYFIYVAAVRDGPNDPISINYRT
  binding result: binds

B14: SEQ ID NO 237 (designed binder)
chain: VSDVPRDLEVVAATPTSLLISWDAPAVTVRNYSIKYKYIPYVSHQEFTVPGSKSTATISGLKPGVTYSIRVQAVYYLIERYPISINYRT
  binding result: binds

B15: SEQ ID NO 214 (designed binder)
chain: VSDVPRDLEVVAATPTSLLISWDAPAVTVRSYHIYDYYNVHSYYGQEFTVPGSKSTATISGLKPGVSYAIYVGAVNEKQLGPISINYRT
  binding result: binds

B16: SEQ ID NO 226 (designed binder)
chain: VSDVPRDLEVVAATPTSLLISWDAPAVTVRYHSIGYNYYGMYQEFTVPGSKSTATISGLKPGVYYYIYVRAVTGREAAPISINYRT
  binding result: binds

B17: SEQ ID NO 206 (designed binder)
chain: VSDVPRDLEVVAATPTSLLISWDAPAVAVRAYSIDYYHDNGDGTQEFTVPGSKSTATISGLKPGVTYGILVYAVVSNMGIPISINYRT
  binding result: binds

B18: SEQ ID NO 224 (designed binder)
chain: VSDVPRDLEVVAATPTSLLISWDAPAVTVRYYSIAYWQLYLPVQEFTVPGSKSTATISGLKPGVSYGITVEAVMSGYSIYPISINYRT
  binding result: binds

B19: SEQ ID NO 205 (designed binder)
chain: VSDVPRDLEVVAATPTSLLISWDAPAVTVRIYSIYYYSYVMRGYYFQEFTVLGSKSTATISGLKPGVNYDINVQAVYHRGWRYPISINYRT
  binding result: binds

B20: SEQ ID NO 210 (designed binder)
chain: VSDVPRDLEVVAATPTSLLISWDAPAVTVRKYYITYYRGRSGNQEFTVPGSKSTATISGLKPGVKYHILVSAVKYPFRRLPISINYRT
  binding result: binds

B21: SEQ ID NO 229 (designed binder)
chain: VSDVPRDLEVVAATPTSLLISWDAPAVTVRTYYIGYGMYTYGQEFTVPGSKSTTTISGLKPGVVYDIYVWAVGFGRYVDPISINYRT
  binding result: binds

B22: SEQ ID NO 220 (designed binder)
chain: VSDVPRDLEVVAATPTSLLISWDAPAVTVRSYSIGYFGAYRNWVQEFTVPGSKSTATISGLKPGVTYYIEVYAVYSNPVYPISINYRT
  binding result: binds

B23: SEQ ID NO 213 (designed binder)
chain: VSDVPRDLEVVAATPTSLLISWDAPAVTVRGYSIKYGSTISADQEFTVPGSKSTATISGLKPGVFYVIMVWAVYYAYANYPISINYRT
  binding result: binds

B24: SEQ ID NO 223 (designed binder)
chain: VSDVPRDLEVVAATPTSLLISWDAPAVTVRTYTIWYVQRYAYSQEFTVPGSKSTATISGLKPGVSYSISVRAVSTDRYYPISINYRT
  binding result: binds

B25: SEQ ID NO 232 (designed binder)
chain: VSDVPRDLEVVAATPTSLLISWDAPAVTVRGYGIYYGDTGDTQEFTVPGSKSTATISGLKPGVMYSIVVFAVEWYMWQPISINYRT
  binding result: binds

B26: SEQ ID NO 207 (designed binder)
chain: VSDVPRDLEVVAATPTSLLISWDAPAVTVRSYYIGYSAYDEYGGRQEFTVPGSKSTATISGLKPGVSYSINVFAVYTMTGRAPISINYRT
  binding result: binds

B27: SEQ ID NO 215 (designed binder)
chain: VSDVPRDLEVVAATPTSLLISWDAPAVTVRTYVISYMSYDAQGGQNQEFTVPGSKSTATISGLKPGVAYNIIVSAVGGGQQAVPISINYRT
  binding result: binds

B28: SEQ ID NO 204 (designed binder)
chain: VSDVPRDLEVVAATPTSLLISWDAPAVTVRYYWIIYWEAWEYVQAQEFTVPGSKSTATISGLKPGVHYGIMVSAVSGEQPWYPISINYRT
  binding result: binds

B29: SEQ ID NO 225 (designed binder)
chain: VSDVPRDLEVVAAAPTSLLISWDAPAVTVRKYYIWYGYSYFVAYSSYQEFTVPGSKSTATISGLKPGVRYYIGVLAVKYPGDYYPISINYRT
  binding result: binds

B30: SEQ ID NO 216 (designed binder)
chain: VSDVPRDLEVVAATPTSLLISWDAPAVTVREYSIYHSWTLVYRRQEFTVPGSKSTATISGLKPGVNYYIYVGAVDNGYGPDPISINYRT
  binding result: binds

B31: SEQ ID NO 221 (designed binder)
chain: VSDVPRDLEVVAATPTSLLISWDAPAVTVRKYQIYYYYSAYVKESQEFTVPGSKSTATISGLKPGVSYNIAVYAVSKSRYQPPISINYRT
  binding result: binds

B32: SEQ ID NO 235 (designed binder)
chain: VSDVPRDLEVVAATPTSLLISWDAPAVTVRDYWIYYRYSWPYGSQEFTVPGSKSTATISGLKPGVTYDIQVEAVYGSESGPISINYRT
  binding result: binds

B33: SEQ ID NO 240 (designed binder)
chain: NVSPPRRARVTDATETTITISWRTKTETITDFEVAALPMVSTGIQRTIKPDVRSYTITGLQPGTTYYISLYTLDDDGPGTPVVIDAST
  binding result: binds

B34: SEQ ID NO 211 (designed binder)
chain: VSDVPRDLEVVAATPTSLLISWDAPAVTVRTYWIVYYRSVYSNGQEFTVPGSKSTATISGLKPGVIYSIRVIAVSYYYYGPISINYRT
  binding result: binds

B35: SEQ ID NO 218 (designed binder)
chain: VSDVPRDLGVVAATPTSLRISWDAPAVTVRSYDIYYWYTTGGSQEFTVPGSKSTATISGLKPGVMYNIYVTAVDADVGGPISINYRT
  binding result: binds

B36: SEQ ID NO 228 (designed binder)
chain: VSDVPRDLEVVAATPTSLLISWDAPAVTVRSYKISYYGYHWVYQEFTVPGSKSTATISGLKPGVSYLISVSAVDYYGVLPISINYRT
  binding result: binds

B37: SEQ ID NO 241 (designed binder)
chain: NVSPPRRARVTDATETTITISWRTKTETITSFNVVAYPSSQDGIQRTIKPDVRSYTITGLQPGTGYQIHLTTLGHLSFSPVVIDAST
  binding result: binds

B38: SEQ ID NO 208 (designed binder)
chain: VSDVPRDLEVVAATPTSLLISWDAPAVTVRKYSIYYFSSYSGIAQEFTVPGSKSTATISGLKPGVYYGIYVEAVYHHYSPPISINYRT
  binding result: binds

B39: SEQ ID NO 222 (designed binder)
chain: VSDVPRDLEVVAATPTSLLTSWDAPAVTVRNYAIYYYDDDTGRQEFTVPGSKSTATISGLKPGVDYYIGVEAVWYWVSSPISINYRT
  binding result: binds

B40: SEQ ID NO 233 (designed binder)
chain: VSDVPRDLEVVAATPTSLLISWDAPAVTVRYYWIQYYIYYSRGTQEFTVPGSKSTATISGLKPGVNYSIGVQAVQAYFGEPISINYRT
  binding result: binds
